Assay results from a protein production outcome set (Wang et al. 2014).

Assay: label from the status in PepcDB records
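Also: failed if final PepcDB status was selected cloned or expressed and not failed if soluble or beyond.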

Sequence | protein production
MPVTEISEKLSVSPQPSIEDIQSLRDQGFKTLINNRPDNEDASQPNTRAERQQAKQCDLSYAFIPVTADTITEADVRAFQRAVDESDGPVLAHCQTGKRALNLYLIGEVLDGSMSVDKVVEFGRSRGFDTSAAAAWLKQHAARRPQVKGFFDKRTWSVQYVISDPLTRKCAIVDPVLDFDEKSGATATINADAILDYIRDNGLTVEWILDTHPHADHFSAAHYLQEKTGARTAIGERVVDVQKLWKGIYNWPELATDGSQWDRLFAHGETFEVGSIDAKVLFSPGHTLASITYVIGDAAFVHDTLFMPDSGTARADFPGGDARVLWKSIQEILALPAETRIFTGHDYQPEGRAPRWESTVAEQKKSNPHLAGVNEQEFVALRTTRDKTLPMPKLILHALQVNIRGGRLPEPEANGKRYLKFPLDALQGAAWE | failed
MTVAGLWLFAMALGASALGGMLGMASGIFIVPLLVLWGIDVHAAIAASIVSVIACSCGSAAAFLQSGLTHVRLAVVLETATTLGALTSVFLVGAVPVAALYALFAVVLVVSAWQMLARRRDPARASGAPACRWAGALRLHGRYRDPAAGRHRRYRVQRLPLGMSLMYGAGVLSALLGIGSGVLKIPAMDSALRLPLKVSSATSNFMIGVTAAASAAVYFARGEIDPAVAGPVALGSVAGSVLGARILMHVSGERLRLLFVAVLALLAVQMLLMALGVQWPGGGR | failed
MEKEMEDKEEFDEGEIEYTSYAGEHHLPLIMSLVDQELSEPYSIFTYRYFVYLWPQLCFLAFHKGKCVGTIVCKMGDHRQTFRGYIAMLVVIKPYRGRGIASELVTRAIKAMMESGCEEVTLEAEVSNKGALALYGRLGFIRAKRLYHYYLNGMDAFRLKLLFPKPRVPQIPSQVQTQQEYETFPRPRVP | failed
MTIQPDFNDEPGAFAMTHTHTALDKTLKERIFHALAFEGLAVLLTAPVLSLVMNKPLAHMGALTLMFSTVAMLWNMLFNSLFDRAQRRMGFQRTLQVRVLHAMLFELGLIVVLVPLAAWWLSIGLVEAFLLDMGLILFFLPYTMAFNWSYDVLRARLVESRQAKAAGCDAG | failed
LADYSTEELEKIADKFRSDTSGIRGTKDFTSPEELYDELKKEIKKYHPSDDTSLVDKAYRVAYDAHKGQARKSGEPYIIHPLCVAIILAELELDKETIAAGLLHDVLEDTIMTMDEMRAEFGDDVAHLVDGVTKLKHLHLTDSTKDPKDKNADRLEMQAENLRKMFLAMAKDIRVILIKLADRLHNMRTLKYQSKEAQQRIARETQDIYCPIAQRLGISKIKIELEDLCMKYLYPDAYYDLVEKVALRKTERDTYIQGLVNDVKKYVSDAGIKAEIYGRAKHFFSIYKKMVNQDKTIDQIYDLFAIRILVDTIPDCYAVLGIIHEKYKPIPGRFKDYIAMPKQNMYQSLHTTLIGPSGQPFEIQIRTYEMHRTAEYGIAAHWKYKETNNGNATTTTVTEEEKLSWLRQILEWQQDMSDNKEFMTLLKSDLNLFSDNVFAFTPSGDVKNLPKGSTPIDFAYSIHSAVGNKMVGAKVNGKLVPIDYVIKNGDQIEIITSQNSKGPSRDWLKVVKSTQAKNKINQWFRSELKEENIQHGKDLIAAYAKAKGINFAEINKPEYQEKIRRKYGFHDWNSCLATVGHGGLKESQIVNRMYDEYKKDHVVPVTDADVLGSIAEKQQAAAGTQPEHKSKSGIVVHGLYDVAVHFSKCCNPVPGDEIVGFVTRGRGISIHRTDCVNIINLSKIEKDRLIEAEWQDTALMDNGAEYQADLKIFCHDRPGLLVDITKIFTEKEINISGIQSKTSKQGIATIEVFFNIKGRDQIKVLVEKLRQIESVIDVERTTG | failed
MVKSIVILIETVTMKIPAVYSDGSFKTFNDSETTAQKLVDSGVVNTFAFGPTLVENGKVAVSENEEVGQDMADNPRTAIVVNEESDRSVHYIVIVSDGRTSESSGLTLYEMAELMKSYGVMTGYNLDVGDSSTMYSNGQVINKPTRKRKQNLRKGGERYRLHRLLKNLLASTFSPPILVLEHHHHHH | not failed
MIMNKIKKILKFCTLKKYDTSSALGREQERYRIISLSVISSLISKILSLLSLILTVSLTLPYLGQERFGVWMTITSLGAALTFLDLGIGNALTNRIAHSFACGKNLKMSRQISGGLTLLAGLSFVITAICYITSGMIDWQLVIKGINENVYAELQHSIKVFVIIFGLGIYSNGVQKVYMGIQKAYISNIVNAIFILLSIITLVISSKLHAGLPVLIVSTLGIQYISGIYLTINLIIKRLIKFTKVNIHAKREAPYLILNGFFFFILQLGTLATWSGDNFIISITLGVTYVAVFSITQRLFQISTVPLTIYNIPLWAAYADAHARNDTQFIKKTLRTSLKIVGISSFLLAFILVVFGSEVVNIWTEGKIQVPRTFIIAYALWSVIDAFSNTFASFLNGLNIVKQQMLAVVTLILIAIPAKYIIVSHFGLTVMLYCFIFIYIVNYFIWYKCSFKKHIDRQLNIRG | failed
MSLSAQADARPTPAPSFSGVTVDGKPFSSASLKGKAYIVNFFATWCPPCRSEIPDMVQVQKTWASRGFTFVGIAVNEQLPNVKNYMKTQGIIYPVMMATPELIRAFNGYIDGGITGIPTSFVIDASGNVSGVIVGPRSKADFDRIVKMALGAKAATKEGHHHHHH | not failed
MSLTRNRTVALAIIDMQNDFVLPGAPACVEGAMGTVPVIAGLLAKARAEGWMVLHVVRAHRADGSDAEKSREHLFLEGGGLCVAGTPGAEIVAGLEPASGETVLVKTRFSAFMGTECDMLLRRRGVDTLLVSGTQYPNCIRGTAVDAFALDYDVVVVTDACSARTPGVAESNINDMRAMGITCVPLTALDDVLARREGHHHHHH | not failed
MKTVKDAEIFCQYIAHEYLGKRNYKLLEDIIDKRITIIGTGAHEVSRNIQELMTALNKEAELWDGTFIIEDEWYQGTELADNLFVVIGQIEGRQNSNDQLVYSFSSRVTFIIEYHDMQWKIIHVHQSVPDYSQGDDEFFPQRIVEESNAQLKKEIAEKTKELEMSNQQVIYNLRHDYLTGILNRPSLEKEVTEAMSNHQYGVILVLDIDYFKEVNDNNGHPYGDEVLIKLANTMQESFKSGICGRIGGDEFIIYLALDDANYDAIEKTIKEFKQNWQKNITTIDRSSTITLSIGGAYYPKHGKNYQELWSNADKALYLSKNNGRNRISIYQL | failed
MPVKKLKQFLDSHKIKYLSIAHSPAYTAQEIAASAHVSGKQLAKTVIIKMDGRLAMVVLPASDHITFMKLKEAIGTSDLELATESEFEGKFAECDVGAMPPFGNLYGLPVLVSTKLSAQDNILFNAGSHSELMQLSFGDFEKLVKPTLVTL | not failed
MTRTMSFHKNCELCTTAGGEILWQDALCRVVHVENQDYPGFCRVILNRHVKEMSDLRPAERDHLMLVVFAVEEAVREVMRPDKINLASLGNMTPHVHWHVIPRFKRDRHFPNSVWGETKRESLPQALDQGSTTALKKAISVRLDQGEPVFMGM | not failed
MAQARCGGELLGLRAVLCVPPCPMPRLLPLTLLLLAAAAHAQSAAPLTIEQAMADPDWIGPSVDQAWWQWDGKQVQYLLKRAGSPVRDTYRQSTAGGTAERVADTARAGLDAANPSYDATRQRMLFARNGDIFLRDLRSGALTQLTRSNEIESRPQFASDGGAIWRAGNNWYHWRADGGTAQVAVVKAERDPDAAPKPDVLREHQLATLATLRRDKEQRDALRTQDDAWRRADATRAAAPVYLGDEVEIVDSALSPDGRHLLVVTQATNAEEGQAGKMPKYVTESGYEEFQEVRTRVGRNASVAHALWLVDVSAGTAKSLSFDPLPGIATDPLAALRKAAKRDALKGNRAVRVESNGDGSGPAVHWSDDGRNVAVEIRAVDNKDRWIASVDLDNAKLQPRHRLSDSAWINWDFNDFGWLPDNRTLWLLSEESGYSQLYTMEGNSKPRQRTRGKWEVSMPVPSADGSGMFFLCNQKWPGDYEVCKLDLRNDQLTEVTALNGVEGFSLSPNGQQLLVSYSGSYLPTQLAVVPATGGQATVLTDTRTPAFKAQPWIAPQYVQVPSKHGAGTVWGKYYGPTTPEPGKQYPIVMFVHGAGYLQNVSERYTPYFREQMFHNLLVQQGYIVLDLDYRASRGYGRDWRTAIYRNMGHTELEDYLDGLDWLVATKQGDRARAGIYGGSYGGFMTYMALFRSPGTFKAGAALRPVGDWMQYNHEYTSNILNTPELDPEAYKTSSPINYAEGLRDHLLIAHGMIDDNVFFKDSVDMTQKLMELHKDNWQLALYPLERHGFTRADSWLDEYKRILKLFNAQVKP | failed
MRILDYDKVIERILEFIREKGNNGVVIGISGGVDSATVAYLATKALGKEKVLGLIMPYFENKDVEDAKLVAEKLGIGYKVINIKPIVDSFVENLELNLDRKGLGNIMSRTRMIMLYAHANSLGRIVLGTSNRSEFLTGYFTKWGDGASDYAPIINLYKTEVWEIAKRIGVPERIVKKKPSAGLWEGQTDEDELGISYNLLDEILWRMIDLKIGKEEIAKDLGIPLSLVERVEELIKKSEHKRRLPIGPSFEDLIVGP | not failed
MGVLAEVYEMLNTCNRCGFCHTACKTYKVDGAETMVSRGRVQLIKAVADGVIEADADYEDSINSCLLCGECAVACPSGVSAKELVMAARRDLKLRHGVKPFVKSYALKTLANPNKLERAFKLFGGLGKNVLNKVDGMDYFRGVDIKGMNVAKVPFLNQVPERILVAQPKHKVAFYVGCFLNFSLDDTAHSVVKVLTKNDCEVIIPKEQVCCGLPQYAYGDFETAKVNARKTIDTFMAKDVEAIITACGSCAAMLKEDYLKLFADDAAYLPRVKSFCAKVKEFSEYMAEIGVDESKFHNSTPVKVTYHDPCHMVRGIKVTAQPRQMLKSLPRVEYIEMFEANRCCGASGLVQAFYHEMSTKVTREKAKNIQDSGAEVVATSCPACIMRLQGGVSMAGQKQKVMHVADLMAKAYEN | failed
LFGVTSELSKDGRERIYRVEGQLFYASVEDFMAAFDFREALDRVVIDVSRAHIWDISSVQALDMAVLKFRREGAEVRIVGMNEASETMVDRLAIHD | not failed
MSVVPVADVLQGRVAVDQEVTVRGWVRTRRDSKAGISFLAVYDGSCFDPVQAVINNSLPNYNEEVLHLTTGCSVVVTGKVVASPGQGQSFEIQATKVEVAGWVEDPDTYPMAAKRHSIEYLREVAHLRPRTNLIGAVARVRHTLAQALHRFFDEQGFFWVSTPLITASDTEGAGEMFRVSTLDLENLPRNDQGRVDFDKDFFGKESFLTVSGQLNGETYACALSKIYTFGPTFRAENSNTSRHLAEFWMLEPEVAFADLEDNARLAEAMLKYVFNAVLEERADDMKFFAERVDKDAIARLERFVSTDFAQVDYTDAVAILERCGKTFENPVFWGVDLSSEHERYLAEEHFKAPVVVKNYPKEIKAFYMRLNEDGKTVAAMDVLAPGIGEIIGGSQREERLDVLDARMAEMGLNKEDYWWYRDLRRYGTVPHSGFGLGFERLIAYVTGVQNVRDVIPFPRTPRNASF | failed
MWLRRKRAPVNGVVTLDRRHLYILPTRGGIGFSVLLATMLLTSLNYAISLGFALTFLLAGIGMGCMWMAYRNLLDLRVSAGPVTPAFVGECAIFTLHVDNQDAAARIGIEARTPLSGADTETAALTLDGVSSGTLPVRLSAIRRGRLVLPRVTLSSRFPFGLFRVWSYADLGLATVVYPAPEASPPPLPRHPQSDDADDGAASFAADDGIDQLRRYRPGDPLHRIAWKHSARTGKWLTRSGHTPQQPSCWIDWNTLPPAMDTEARLSRLCAWVLMAGEVSEIGLRLPGVEITPGRGSAHVRACLEALALWPERRAR | failed
MRKEIRFSGFGGQGIILAGVILGRAASLYAGKEAVQTQSYGPEARGGASKSEVVISEIEIDFPKVIQPDILISMSQPAFDKYGYDLKENARVIVDRDLVNLPEGYEEKYEVYKVPFTEIANKEVGLGIVANIVMLGALTKLSGLVPKEEVEKALLDSIPKGTEKKNLMAFEKGYEYL | not failed
